Measurements: US5854005A, “Platelet blockade assay” (Mount Sinai School of Medicine, priority 1996, dated 1998)
“And” between values parts separate entries of the source, which are not always exact repeats. Equal entries are not always repeated. Each block holds one compound with its values, some of them ahead of it.

Tests used:
GPIIb/IIIa receptor [1] = target: T1, GPIIb/IIIa receptor (Homo sapiens, UniProt P05106+P08514); experiment: Fibrinogen-coated bead agglutination whole blood assay with activating peptide; type: cell-based; set-up: key to agglutination assay result: the assay remained positive (i.e., 1-4+); The assay became negative (i.e., O+); details: for agglutination assay result: 2 μM activating peptide
T1 construct: GP IIb/IIIa receptor proteins, which are found on the cell surface of platelets; endogenous in cells; host or cells: platelets in citrated whole blood of donors
Description: Blood (9 volumes) is drawn from a patient by syringe and placed into standard blue-top tube containing sodium citrate (1 volume of 3.8% sodium citrate). Alternatively, blood may be drawn by Vacutainer directly into a blue-top tube. The tube is then inverted to mix the anticoagulant with the whole blood. Then 70 μl of this mixture is added to an assay tube containing 100 μl of buffer (0.15M NaCl, 0.5 mM CaCl2, 0.01M HEPES, pH 7.4), 10 μl of well-mixed fibrinogen coated beads prepared by the method of Example 1, and 5-10 µl of isoSer-Phe-Leu-Leu-Arg-Asn (SEQ ID NO:3).
The assay tube is then placed on a rocker and rocked at 20 cpm at room temperature for two minutes. The tube is removed from the rocker, held vertically to allow the blood to drain and viewed. If less than 80% of GPIIb/IIIa receptor blockade has been achieved in the patient's blood, agglutinated beads are readily seen in the streak marking where the blood tilted back and forth.
(§1) Purified peak I-2 fibrinogen is coupled to 3 μm, blue carboxylated beads (obtained from Polysciences, Inc.) using a water soluble carbodiimide (EDC) by the method of Example 1. The assay is conducted by adding to a 12×75 mm glass test tube: 100 μl of buffer, 20 μl of beads (2.5% slurry), and 5 μl of isoSer-Phe-Leu-Leu-Arg-Asn. Blood is collected into citrate anticoagulant and 70 μl of the whole blood is added to the test tube, which is then capped, placed on a rocking platform, and rocked at 16 cycles/min. When normal blood was tested using 1 or 2 μM activating peptide, a 4+ agglutination endpoint was easily observed in all donors (n=10) by 2 min. […] Using 2 μM activating peptide, the assay remained positive (i.e., 1-4+) at c7E3 Fab concentrations of 0.8 (n=1), 1.2 (n=1), 1.5 (n=3), and 1.8 (n=2) μg/ml, corresponding to GPIIb/IIIa receptor blockade of 56%; 77%; 68, 68, and 82%; and 66 and 73%. The assay became negative (i.e., O+) at c7E3 Fab concentrations of 1.2 (n=1), 1.5 (n=1), 1.8 (n=3) and 2.4 (n=2) μg/ml, corresponding to GPIIb/IIIa receptor blockade of 77%; 92%; 83, 88 and 94%; and 88 and 89%. […] The percentage of receptor blockade was assayed by radiolabeled 7E3 binding as reported in Coller et al., N.Y. Acad. Sci., 614:193 (1993).

aminopeptidase M [2] = details: in the presence of aminopeptidase M; cited from earlier work
thrombin receptor = details: cited from earlier work
aminopeptidase M [3] = details: incubated in plasma; cited from earlier work
GPIIb/IIIa receptor [4] = target: T1, GPIIb/IIIa receptor; details: cited from earlier work
GPIIb/IIIa receptor [5] = target: T1, GPIIb/IIIa receptor; experiment: GPIIb/IIIa receptor blockade assayed by radiolabeled 7E3 binding
Description: as §1

[6] = blood pretreated with c7E3 Fab at 5 doses between 0.8-3.0 μg/ml for about 10 minutes at 22° C.

Compound: CC(=O)Oc1ccccc1C(=O)O [Aspirin, reference compound]
effect on the agglutination assay results (GPIIb/IIIa receptor [1]; Aspirin 1 mM): did not appreciably affect the results

Compound: CC(C)C[C@@H](N)[C@H](O)C(=O)N[C@H](C(=O)N[C@H](C(=O)N[C@@H](CC(=O)O)C(=O)O)C(C)C)C(C)C [amastatin]
effect on platelet aggregation (aminopeptidase M [2]): enhance platelet aggregation

Compound: T-11: eleven amino acid peptide lacking the three C-terminal amino acids of T-14 (SFLLRNPNDKY)
platelet activation activity relative to T-6 (thrombin receptor): ~ 20%
potency relative to T-14 (thrombin receptor): twice as potent as T-14
ability to induce aggregation after incubation in plasma (aminopeptidase M [3]): lose their ability to induce aggregation

Compound: T-14: fourteen amino acid peptide corresponding to the new N-terminus of the cleaved thrombin receptor protein (SFLLRNPNDKYEPF)
platelet aggregating activity (thrombin receptor): capable of aggregating platelets directly
ability to induce aggregation after incubation in plasma (aminopeptidase M [3]): lose their ability to induce aggregation

agglutination assay result (GPIIb/IIIa receptor [1]; c7E3 Fab 0.8 μg/ml): positive
agglutination assay result (GPIIb/IIIa receptor [1]; c7E3 Fab 2.4 μg/ml): negative
agglutination of beads (GPIIb/IIIa receptor [1]; [6]): elimination of agglutination
GPIIb/IIIa receptor blockade (trend) (GPIIb/IIIa receptor [5]; [6]): increasing GPIIb/IIIa receptor blockade
GPIIb/IIIa receptor blockade (GPIIb/IIIa receptor [5]; c7E3 Fab 0.8 μg/ml, samples with positive agglutination assay): 56%
GPIIb/IIIa receptor blockade (GPIIb/IIIa receptor [5]; c7E3 Fab 1.2 μg/ml, samples with negative agglutination assay): 77%
GPIIb/IIIa receptor blockade (GPIIb/IIIa receptor [5]; c7E3 Fab 1.2 μg/ml, samples with positive agglutination assay): 77%
GPIIb/IIIa receptor blockade (GPIIb/IIIa receptor [5]; c7E3 Fab 1.5 μg/ml, samples with negative agglutination assay): 92%
GPIIb/IIIa receptor blockade (GPIIb/IIIa receptor [5]; c7E3 Fab 1.5 μg/ml, samples with positive agglutination assay): 68% and 82%
GPIIb/IIIa receptor blockade (GPIIb/IIIa receptor [5]; c7E3 Fab 1.8 μg/ml, samples with negative agglutination assay): 83% and 88% and 94%
GPIIb/IIIa receptor blockade (GPIIb/IIIa receptor [5]; c7E3 Fab 1.8 μg/ml, samples with positive agglutination assay): 66% and 73%
GPIIb/IIIa receptor blockade (GPIIb/IIIa receptor [5]; c7E3 Fab 2.4 μg/ml, samples with negative agglutination assay): 88% and 89%
Compound: c7E3 Fab: GPIIb/IIIa receptor blocking agent, monoclonal antibody c7E3 Fab
bleeding times (GPIIb/IIIa receptor [4]; blockade of about 80% or more of GPIIb/IIIa receptors, often to times greater than thirty minutes): prolongs the bleeding times
platelet aggregation (GPIIb/IIIa receptor [4]; blockade of about 80% or more of an individual's GPIIb/IIIa receptors): abolishes platelet aggregation
antithrombotic effect (GPIIb/IIIa receptor [4]; patient with a platelet count greater than 900,000/μl, standard dose): virtually no antithrombotic effect

effect on the agglutination assay results (GPIIb/IIIa receptor [1]; heparin 3.5 U/ml): did not appreciably affect the results
Compound: heparin [reference compound]
